Test results published in patent publication US20250129145A1 (Ablynx, published 2025).

B1: TPP-66095 (other)
chain: DLGKKLLEAARAGQDDEVRELLKAGADVNAKDYFSHTPLHLAARNGHLKIVEVLLKAGADVNAKDFAGKTPLHLAANEGHLEIVEVLLKAGADVNAQDIFGKTPADIAADAGHEDIAEVLQKAAGGGGSGGGGSGGGGSGGGGSGGGGSGGGGSGGGGSEVQLVESGGGVVQPGGSLRLSCAASGFTFRSFGMSWVRQAPGKGPEWVSSISGSGSDTLYADSVKGRFTISRDNSKNTLYLQMNSLRPEDTALYYCTIGGSLSRSSQGTLVTVSSA
notes: also called DARPIN-35GS-ALB23002-A; DARPIN-35GS-Alb223
B2: TPP-66099 (VHH)
chain: EVQLVESGGGVVQPGGSLRLSCAASGFTFRSFGMSWVRQAPGKGPEWVSSISGSGSDTLYADSVKGRFTISRDNSKNTLYLQMNSLRPEDTALYYCTIGGSLSRSSQGTLVTVSSGGGGSGGGGSGGGGSGGGGSGGGGSGGGGSGGGGSEVQLVESGGGVVQPGGSLRLSCAASGFTFRSFGMSWVRQAPGKGPEWVSSISGSGSDTLYADSVKGRFTISRDNSKNTLYLQMNSLRPEDTALYYCTIGGSLSRSSQGTLVTVSSGGGGSGGGGSGGGGSGGGGSGGGGSGGGGSGGGGSEVQLVESGGGVVQPGGSLRLSCAASGFTFRSFGMSWVRQAPGKGPEWVSSISGSGSDTLYADSVKGRFTISRDNSKNTLYLQMNSLRPEDTALYYCTIGGSLSRSSQGTLVTVSSA
notes: also called ALB23002-35GS-ALB23002-35GS-ALB23002-A
B3: IRR00164 (VHH)
VHH: EVQLVESGGGVVQPGGSLRLSCAASGFTFRSFGMSWVRQAPGKGPEWVSSISGSGSDTLYADSVKGRFTISRDNSKNTLYLQMNSLRPEDTALYYCTIGGSLSRSSQGTLVTVSS
notes: also called CNB-9GS-CNB-9GS-CNB-9GS-ALB23002-A; CNB-CNB-CNB-Alb223
B4: TPP-66100 (VHH)
chain: EVQLVESGGGVVQPGGSLRLSCAASGLTFSSYAMGWFRQAPGKERERVVSISRGGGYTYYADSVKGRFTISRDNSKNTVYLQMNSLRPEDTALYYCAAARYWATGSEYEFDYWGQGTLVTVSSGGGGSGGGGSGGGGSGGGGSGGGGSGGGGSGGGGSEVQLVESGGGVVQPGDSLRLSCAASGGTFSTYVMGWFRQAPGKEREFVSAISQNSIHTYYANSVKGRFTISRDNSKNTVYLQLNSLRPEDTALYYCAASRFTSWYTADYEYDYWGQGTLVTVSSGGGGSGGGGSGGGGSGGGGSGGGGSGGGGSGGGGSEVQLVESGGGVVQPGGSLRLSCAASGFTFRSFGMSWVRQAPGKGPEWVSSISGSGSDTLYADSVKGRFTISRDNSKNTLYLQMNSLRPEDTALYYCTIGGSLSRSSQGTLVTVSSA
notes: also called ALBX00002-35GS-T023500029-35GS-ALB23002-A
B5: TPP-66097 (other)
chain: LKEAKEKAIEELKKAGITSDYYFDLINKAKTVEGVNALKDEILKAGGGGSGGGGSGGGGSGGGGSGGGGSGGGGSGGGGSEVQLVESGGGVVQPGGSLRLSCAASGFTFRSFGMSWVRQAPGKGPEWVSSISGSGSDTLYADSVKGRFTISRDNSKNTLYLQMNSLRPEDTALYYCTIGGSLSRSSQGTLVTVSSA
notes: also called ABD-35GS-ALB23002-A; ABD-35GS-Alb223
B6: TPP-66102 (VHH)
chain: EVQLVESGGGVVQPGGSLRLSCAASGFTFRSFGMSWVRQAPGKGPEWVSSISGSGSDTLYADSVKGRFTISRDNSKNTLYLQMNSLRPEDTALYYCTIGGSLSRSSQGTLVTVSSGGGGSGGGGSGGGGSGGGGSGGGGSGGGGSGGGGSEVQLVESGGGVVQPGGSLRLSCAASGFTFRSFGMSWVRQAPGKGPEWVSSISGSGSDTLYADSVKGRFTISRDNSKNTLYLQMNSLRPEDTALYYCTIGGSLSRSSQGTLVTVSSGGGGSGGGGSGGGGSGGGGSGGGGSGGGGSGGGGSEVQLVESGGGVVQPGGSLRLSCAASGFTFRSFGMSWVRQAPGKGPEWVSSISGSGSDTLYADSVKGRFTISRDNSKNTLYLQMNSLRPEDTALYYCTIGGSLSRSSQGTLVTVSSGGGGSGGGGSGGGGSGGGGSGGGGSGGGGSGGGGSEVQLVESGGGVVQPGGSLRLSCAASGFTFRSFGMSWVRQAPGKGPEWVSSISGSGSDTLYADSVKGRFTISRDNSKNTLYLQMNSLRPEDTALYYCTIGGSLSRSSQGTLVTVSSA
notes: also called ALB23002-35GS-ALB23002-35GS-ALB23002-35GS-ALB23002-A
B7: TPP-66094 (VHH)
chain: EVQLVESGGGVVQPGDSLRLSCAASGGTFSTYVMGWFRQAPGKEREFVSAISQNSIHTYYANSVKGRFTISRDNSKNTVYLQLNSLRPEDTALYYCAASRFTSWYTADYEYDYWGQGTLVTVSSGGGGSGGGGSGGGGSGGGGSGGGGSGGGGSGGGGSEVQLVESGGGVVQPGGSLRLSCAASGFTFRSFGMSWVRQAPGKGPEWVSSISGSGSDTLYADSVKGRFTISRDNSKNTLYLQMNSLRPEDTALYYCTIGGSLSRSSQGTLVTVSSA
notes: also called T023500029-35GS-ALB23002-A; T023500029-35GS-Alb223
B8: TPP-66101 (other)
chain: DLGKKLLEAARAGQDDEVRELLKAGADVNAKDYFSHTPLHLAARNGHLKIVEVLLKAGADVNAKDFAGKTPLHLAANEGHLEIVEVLLKAGADVNAQDIFGKTPADIAADAGHEDIAEVLQKAAGGGGSGGGGSGGGGSGGGGSGGGGSGGGGSGGGGSEVQLVESGGGVVQPGGSLRLSCAASGFTFRSFGMSWVRQAPGKGPEWVSSISGSGSDTLYADSVKGRFTISRDNSKNTLYLQMNSLRPEDTALYYCTIGGSLSRSSQGTLVTVSSGGGGSGGGGSGGGGSGGGGSGGGGSGGGGSGGGGSEVQLVESGGGVVQPGGSLRLSCAASGFTFRSFGMSWVRQAPGKGPEWVSSISGSGSDTLYADSVKGRFTISRDNSKNTLYLQMNSLRPEDTALYYCTIGGSLSRSSQGTLVTVSSA
notes: also called DARPIN-35GS-ALB23002-35GS-ALB23002-A
B9: TPP-66093 (VHH)
chain: EVQLVESGGGVVQPGGSLRLSCAASGLTFSSYAMGWFRQAPGKERERVVSISRGGGYTYYADSVKGRFTISRDNSKNTVYLQMNSLRPEDTALYYCAAARYWATGSEYEFDYWGQGTLVTVSSGGGGSGGGGSGGGGSGGGGSGGGGSGGGGSGGGGSEVQLVESGGGVVQPGGSLRLSCAASGFTFRSFGMSWVRQAPGKGPEWVSSISGSGSDTLYADSVKGRFTISRDNSKNTLYLQMNSLRPEDTALYYCTIGGSLSRSSQGTLVTVSSA
notes: also called ALBX00002-35GS-ALB23002-A; ALBX00002-35GS-Alb223
B10: ALB00223 (VHH)
VHH: B3 VHH
notes: also called ALB00223-A; Alb223

target: T1, human serum albumin (human, UniProt P02768 25-609); assay: SPR, pH 7.4, immobilized HSA density ~500 RU
T1 construct: Bought protein; also called HSA
Procedure: (§1) The purified multivalent albumin binding constructs were also tested in SPR on different densities of HSA (100 RU until 6700 RU) to detect avidity.

Binder	koff
B1	0.00038 s⁻¹
B2	0.00018 s⁻¹
B3	0.002 s⁻¹
B4	0.00032 s⁻¹
B5	0.00012 s⁻¹
B6	0.00012 s⁻¹
B7	9.3e-05 s⁻¹
B8	0.00023 s⁻¹
B9	8.6e-05 s⁻¹

target: T1, human serum albumin; assay: SPR Biacore 8K+, HSA immobilized (C1 chip), pH 7.4, bivalent analyte fit
Procedure: (§2) The affinities of the purified multivalent albumin binding constructs for HSA at pH 7.4 was determined on a Biacore 8K+ instrument. HSA (Sigma-Aldrich—Sigma, Cat No. A8763) was immobilized on a Series S Sensor Chip C1. The multivalent albumin binding proteins as described in Table 12 above were injected at 9 different concentrations (between 1.6 and 2500 nM) and allowed to associate for 120 s at 30 μL/min and dissociate for 600 s.

Binder	ka2 (bivalent analyte fit)	kd2 (bivalent analyte fit)
B2	0.0022 M⁻¹ s⁻¹	0.0038 s⁻¹
B4	0.0074 M⁻¹ s⁻¹	0.026 s⁻¹
B5	0.0023 M⁻¹ s⁻¹	0.0088 s⁻¹
B6	0.005 M⁻¹ s⁻¹	0.0066 s⁻¹
B7	0.00027 M⁻¹ s⁻¹	0.0022 s⁻¹
B8	95 M⁻¹ s⁻¹	65 s⁻¹
B9	0.00012 M⁻¹ s⁻¹	0.00084 s⁻¹

target: T1, human serum albumin; assay: SPR ProteOn XPR36, HSA immobilized (GLC sensor), pH 6.0, Langmuir 1:1 fit
Procedure: (§3) In a first experiment, the affinities of monovalent (ALB00223) and a bivalent ALB23002 construct (T032200003) for human and mouse serum albumin (HSA and MSA, respectively) at pH 6.0 and pH 7.4 were determined on a ProteOn XPR36 instrument (Bio-rad Laboratories, Inc.). HSA or MSA (HSA: Sigma-Aldrich—Sigma, Cat No. A8763; MSA: Albumin Bioscience, Cat No. 2601) was immobilized via amine coupling on a GLC sensor (short matrix, normal capacity). The constructs were injected at 6 different concentrations (between 0.95 and 500 nM) and allowed to associate for 120 s at 45 μL/min and dissociate for 600 s. Evaluation of the sensorgrams was based on the Kinetic Langmuir 1:1 (simultaneous ka/kd) fit.

Binder	Kd	koff	kon
B10	0.69 nM	0.000593 s⁻¹	853000 M⁻¹ s⁻¹

target: T1, human serum albumin; assay: SPR, pH 7.4, immobilized HSA density ~3000 RU
Procedure: as §1

Binder	koff
B1	0.00016 s⁻¹
B2	7.2e-05 s⁻¹
B3	0.0016 s⁻¹
B4	0.00036 s⁻¹
B5	8.4e-05 s⁻¹
B6	3.6e-05 s⁻¹
B7	7.6e-05 s⁻¹
B8	0.0001 s⁻¹
B9	6.6e-05 s⁻¹

target: T1, human serum albumin; assay: SPR Biacore 8K+, HSA immobilized (C1 chip), pH 7.4, bivalent analyte fit (KD1)
Procedure: as §2

Binder	Kd
B2	1.4 nM
B4	1.7 nM
B5	0.082 nM
B6	2 nM
B7	0.49 nM
B8	5 nM
B9	0.66 nM

target: T1, human serum albumin; assay: SPR Biacore 8K+, HSA immobilized (C1 chip), pH 7.4, bivalent analyte fit (kd1)
Procedure: as §2

Binder	koff
B2	0.0005 s⁻¹
B4	0.00034 s⁻¹
B5	1.5e-05 s⁻¹
B6	0.00055 s⁻¹
B7	0.00013 s⁻¹
B8	0.0015 s⁻¹
B9	0.00012 s⁻¹

target: T1, human serum albumin; assay: SPR ProteOn XPR36, HSA immobilized (GLC sensor), pH 7.4, Langmuir 1:1 fit
Procedure: as §3

Binder	Kd	koff	kon
B10	1.37 nM	0.000809 s⁻¹	592000 M⁻¹ s⁻¹

target: T2, mouse serum albumin (mouse, UniProt P07724 25-608); assay: SPR ProteOn XPR36, MSA immobilized (GLC sensor), pH 7.4, Langmuir 1:1 fit
T2 construct: Bought protein; also called MSA
Procedure: as §3

T2 sequence (P07724 25-608 limits assumed): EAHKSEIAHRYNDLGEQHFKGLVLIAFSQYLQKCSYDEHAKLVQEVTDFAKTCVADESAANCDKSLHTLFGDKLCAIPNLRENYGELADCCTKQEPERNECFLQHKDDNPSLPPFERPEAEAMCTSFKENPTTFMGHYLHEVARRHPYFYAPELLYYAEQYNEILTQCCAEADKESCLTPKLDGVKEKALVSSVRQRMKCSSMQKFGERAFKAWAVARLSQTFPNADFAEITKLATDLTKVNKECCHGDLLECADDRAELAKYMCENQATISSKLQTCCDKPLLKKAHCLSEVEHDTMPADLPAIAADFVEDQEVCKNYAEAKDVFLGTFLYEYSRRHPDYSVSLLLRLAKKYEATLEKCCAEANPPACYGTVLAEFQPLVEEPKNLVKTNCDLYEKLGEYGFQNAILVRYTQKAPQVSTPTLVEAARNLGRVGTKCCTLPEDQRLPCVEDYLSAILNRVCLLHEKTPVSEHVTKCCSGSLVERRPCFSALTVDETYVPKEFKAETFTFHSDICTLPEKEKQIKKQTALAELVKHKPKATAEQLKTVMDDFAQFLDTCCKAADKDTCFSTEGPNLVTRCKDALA

Binder	Kd	koff	kon
B10	9.09 nM	0.00697 s⁻¹	767000 M⁻¹ s⁻¹

target: T2, mouse serum albumin; assay: SPR ProteOn XPR36, MSA immobilized (GLC sensor), pH 6.0, Langmuir 1:1 fit
Procedure: as §3

Binder	Kd	koff	kon
B10	6.02 nM	0.00618 s⁻¹	1.03e+06 M⁻¹ s⁻¹

target: T1, human serum albumin; assay: SPR Biacore 8K+, HSA immobilized (C1 chip), pH 7.4, bivalent analyte fit (ka1)
Procedure: as §2

Binder	kon
B2	370000 M⁻¹ s⁻¹
B4	200000 M⁻¹ s⁻¹
B5	180000 M⁻¹ s⁻¹
B6	280000 M⁻¹ s⁻¹
B7	270000 M⁻¹ s⁻¹
B8	300000 M⁻¹ s⁻¹
B9	180000 M⁻¹ s⁻¹

target: T1, human serum albumin; assay: SPR, pH 7.4, immobilized HSA density ~100 RU
Procedure: as §1

Binder	koff
B1	0.00021 s⁻¹
B2	0.00041 s⁻¹
B4	0.00027 s⁻¹
B5	7.4e-05 s⁻¹
B6	0.00043 s⁻¹
B7	0.00012 s⁻¹
B8	0.00076 s⁻¹
B9	0.00011 s⁻¹

target: T1, human serum albumin; assay: SPR, pH 7.4, immobilized HSA density ~6700 RU
Procedure: as §1

Binder	koff
B1	8.3e-05 s⁻¹
B2	3.6e-05 s⁻¹
B3	0.0012 s⁻¹
B4	0.00032 s⁻¹
B5	6e-05 s⁻¹
B6	1.4e-05 s⁻¹
B7	5.6e-05 s⁻¹
B8	4e-05 s⁻¹
B9	5.2e-05 s⁻¹
